Experimental data as given in PMC7555306, “Domain Organization in Plant Blue-Light Receptor Phototropin2 of Arabidopsis thaliana Studied by Small-Angle X-ray Scattering” (International Journal of Molecular Sciences, 2020).

B1: Asp720Asn-mutated full-length phototropin2 of Arabidopsis thaliana (natural protein)
chain: MERPRAPPSPLNDAESLSERRSLEIFNPSSGKETHGSTSSSSKPPLDGNNKGSSSKWMEFQDSAKITERTAEWGLSAVKPDSGDDGISFKLSSEVERSKNMSRRSSEESTSSESGAFPRVSQELKTALSTLQQTFVVSDATQPHCPIVYASSGFFTMTGYSSKEIVGRNCRFLQGPDTDKNEVAKIRDCVKNGKSYCGRLLNYKKDGTPFWNLLTVTPIKDDQGNTIKFIGMQVEVSKYTEGVNDKALRPNGLSKSLIRYDARQKEKALDSITEVVQTIRHRKSQVQESVSNDTMVKPDSSTTPTPGRQTRQSDEASKSFRTPGRVSTPTGSKLKSSNNRHEDLLRMEPEELMLSTEVIGQRDSWDLSDRERDIRQGIDLATTLERIEKNFVISDPRLPDNPIIFASDSFLELTEYSREEILGRNCRFLQGPETDQATVQKIRDAIRDQREITVQLINYTKSGKKFWNLFHLQPMRDQKGELQYFIGVQLDGSDHVEPLQNRLSERTEMQSSKLVKATATNVDEAVRELPDANTRPEDLWAAHSKPVYPLPHNKESTSWKAIKKIQASGETVGLHHFKPIKPLGSGDTGSVHLVELKGTGELYAMKAMEKTMMLNRNKAHRACIEREIISLLDHPFLPTLYASFQTSTHVCLITDFCPGGELFALLDRQPMKILTEDSARFYAAEVVIGLEYLHCLGIVYRDLKPENILLKKDGHIVLANFDLSFMTTCTPQLIIPAAPSKRRRSKSQPLPTFVAEPSTQSNSFVGTEEYIAPEIITGAGHTSAIDWWALGILLYEMLYGRTPFRGKNRQKTFANILHKDLTFPSSIPVSLVGRQLINTLLNRDPSSRLGSKGGANEIKQHAFFRGINWPLIRGMSPPPLDAPLSIIEKDPNAKDIKWEDDGVLVNSTDLDIDLF
notes: phototropin2 (phot2), Arabidopsis thaliana, full length, residues 1-915, with Asp720Asn; also called phot2; full-length phot2
B2: LOV1 fragment of Arabidopsis thaliana phototropin2 (domain or fragment, UniProt P93025 117-265, looked up)
chain: FPRVSQELKTALSTLQQTFVVSDATQPHCPIVYASSGFFTMTGYSSKEIVGRNCRFLQGPDTDKNEVAKIRDCVKNGKSYCGRLLNYKKDGTPFWNLLTVTPIKDDQGNTIKFIGMQVEVSKYTEGVNDKALRPNGLSKSLIRYDARQK
notes: phototropin2 (phot2), Arabidopsis thaliana, LOV1 fragment, residues 117-265 of the 915-residue protein; also called phot2 LOV1

Target: the molecule itself
Assay: SAXS; in solution at 293 K, at least three specimen concentrations, extrapolated to infinite dilution; in the dark (D450), under blue-light irradiation (S390) and after dark reversion; apparent molecular weight from I(S=0,C=0) against hen egg-white lysozyme or the buffer's scattering

Protein	stoichiometry N
B1	2
B2	2
